Measured values: PMC3335016, “Analysis of the Nse3/MAGE-Binding Domain of the Nse4/EID Family Proteins” (PLoS ONE, 2012)

B1: EID2 WT peptide (aa 197-217) [modified: biotin, linked via the SGSG spacer; biotin, linked via the SGSG spacer] [human] / His-S-MAGEC2(129-339) [human] (parent complex)
chain 1: QRNPHRVDLDILTFTIALTAS
chain 2: GLPDSESSFTYTLDEKVAELVEFLLLKYEAEEPVTEAEMLMIVIKYKDYFPVILKRAREFMELLFGLALIEVGPDHFCVFANTVGLTDEGSDDEGMPENSLLIIILSVIFIKGNCASEEVIWEVLNAVGVYAGREHFVYGEPRELLTKVWVQGHYLEYREVPHSSPPYYEFLWGPRAHSESIKKKVLEFLAKLNNTVPSSFPSWYKDALKD

Variants of: B1
Assay: PEPSCAN-ELISA; parent: 100; read off a plot

Compared with chain 1 T13A, chain 1 P4A is lower in percent of parent: ~46% for the first, ~45% for the second.

First: chain 1 N3A
Second: chain 1 H5A
The percent of parent of the first is higher: ~58% for the first, ~38% for the second.

Going from chain 1 D8A to chain 1 T15A, the percent of parent falls from ~86% to ~67%.

In the case of chain 1 V7A, the percent of parent is reported as ~34%.
